Assay results published in patent US20240141061A1, “NOVEL ANTIBODY AGAINST CD55 AND USE THEREOF” (SG MEDICAL INC, priority 2021, published 2024).
Entries after “also recorded” stand apart in the source; their conditions may differ.

How the values were obtained:
[1] = target: T1, recombinant human CD55 (R&D Systems 2009-CD/CF) (human, UniProt P08174 35-353); experiment: indirect ELISA, recombinant human CD55 coated
T1 construct: Bought recombinant protein coated on ELISA plates; also called decay-accelerating factor; DAF
T1 sequence (looked up): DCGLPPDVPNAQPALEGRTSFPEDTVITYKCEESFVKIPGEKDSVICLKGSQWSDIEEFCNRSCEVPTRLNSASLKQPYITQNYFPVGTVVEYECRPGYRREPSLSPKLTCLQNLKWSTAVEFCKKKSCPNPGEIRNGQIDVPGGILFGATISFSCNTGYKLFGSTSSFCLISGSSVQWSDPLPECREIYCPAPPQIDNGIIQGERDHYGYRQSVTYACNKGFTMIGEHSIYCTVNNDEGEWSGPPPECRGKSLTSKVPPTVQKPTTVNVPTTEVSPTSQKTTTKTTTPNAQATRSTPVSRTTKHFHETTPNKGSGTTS

[2] = target: T2, CD55 on cells (BJAB, Ramos, Ramos-RR, K562, K562-IR, PC9, PC9-GR) (UniProt P08174 35-353, limits assumed); experiment: flow cytometry, Ramos and Ramos-RR cells stained with 10 µg/mL EP-10H and anti-human IgG Alexa Fluor 488
T2 construct: whole, on cells; Endogenous CD55 on cell lines used for flow cytometry and cell death assays; also called CD55 receptor
T2 sequence (looked up): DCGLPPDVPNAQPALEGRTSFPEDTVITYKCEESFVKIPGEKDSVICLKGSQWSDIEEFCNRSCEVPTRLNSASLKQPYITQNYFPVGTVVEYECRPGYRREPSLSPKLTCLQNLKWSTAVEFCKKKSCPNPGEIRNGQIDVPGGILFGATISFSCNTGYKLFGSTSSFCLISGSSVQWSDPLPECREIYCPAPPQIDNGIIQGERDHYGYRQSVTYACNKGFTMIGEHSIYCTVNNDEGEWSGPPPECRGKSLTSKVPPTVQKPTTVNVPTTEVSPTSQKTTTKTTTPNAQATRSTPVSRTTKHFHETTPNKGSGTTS
Description: 5×10⁵ Ramos or Ramos-RR cells were suspended in PBS containing or not containing 10 μg/mL of the EP-10H monoclonal antibody and cultured at 4° C. for 1 hour. The culture was centrifuged at 4,000 rpm for 5 minutes and centrifuged again at 4,000 rpm for 5 minutes after washing with 100 μL of PBS. After treating the cells with goat anti-human IgG antibody diluted to 1:100 using PBS and Alexa Fluor 488 (ThermoFisher Scientific, USA), they were incubated at 4° C. for 30 minutes in the shade. The fluorescence-stained cells were washed with PBS, suspended in 400 μL of PBS and then analyzed using Attune N×T (ThermoFisher Scientific, USA), which is a FACS analysis equipment.

recombinant human CD55 = target: T3, recombinant human CD55 (Homo sapiens, UniProt P08174); experiment: Indirect ELISA, affinity for CD55; assay type: binding; details: full-length antibody 0.0001-10 nM on CD55 coated at 1 μg/mL
T3 construct: purchased R&D Systems 2009-CD/CF
T3 sequence (P08174 35-353): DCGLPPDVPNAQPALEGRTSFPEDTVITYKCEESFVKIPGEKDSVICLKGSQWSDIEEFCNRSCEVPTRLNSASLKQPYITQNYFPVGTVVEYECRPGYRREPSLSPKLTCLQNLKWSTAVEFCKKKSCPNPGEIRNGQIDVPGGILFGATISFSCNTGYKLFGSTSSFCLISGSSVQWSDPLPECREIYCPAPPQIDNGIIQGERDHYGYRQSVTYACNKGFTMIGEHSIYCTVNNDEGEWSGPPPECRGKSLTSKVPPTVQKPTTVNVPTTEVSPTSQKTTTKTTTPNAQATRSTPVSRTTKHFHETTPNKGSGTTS
Description: The binding ability of the G4-1H monoclonal antibody prepared in Example 2 for CD55 was investigated by indirect ELISA. For the indirect ELISA, recombinant human CD55 (R&D Systems, USA) diluted to 1 μg/mL in 50 μL of PBS was added to a 96-well immunoplate (Corning, USA) and then adsorbed by keeping at 4° C. overnight. After incubation for 1 hour at room temperature in a buffer containing 3% bovine serum albumin (Millipore, USA), followed by washing with a buffer containing 0.5% Tween 20 (Amresco, USA) three times, 50 μL of the serially diluted antibody (0.0001, 0.0003, 0.001, 0.003, 0.01, 0.03, 0.1, 0.3, 1, 3 and 10 nM) was treated per well. After incubation at room temperature for 2 hours for antibody-antigen binding, the antibody-antigen complex was washed three times with a buffer containing 0.5% Tween 20 (Amresco, USA). After treating with 50 μL of anti-human immunoglobulin Fc-HRP antibody (Jackson Immunoresearch, USA) diluted to 1:3,000 per well, followed by incubation at room temperature for 1 hour and washing three times with a buffer containing 0.5% Tween 20 (Amresco, USA), color development was conducted for 10 minutes by adding 50 μL of 3,3′,5,5′-tetramethylbenzidine (TMB) (ThermoFisher Scientific, USA).
The affinity of the antibodies screened in Example 6 for CD55 was investigated by indirect ELISA. The indirect ELISA was conducted in the same manner as in Example 3.
The affinity of the antibodies prepared in Example 8 for CD55 was investigated by indirect ELISA. The indirect ELISA was conducted in the same manner as in Example 3. […]

[3] = test system: Burkitt lymphoma BJAB cells; experiment: CDC / apoptosis by FACS (annexin V/7-AAD) in BJAB cells with complement human serum; assay type: cell-based; details: 50 μg/mL anti-CD55 antibody + 20 μg/mL rituximab, 50% complement human serum, 1 hour
Description: BJAB cells have complement resistance and this is due to the expression of CD55 (Golay, et al., Blood, 95 (12):3900-8, 2000). For this reason, they show low response to rituximab the main therapeutic mechanism of which is CDC (complement-dependent cytotoxicity). In order to confirm the possibility of improving the therapeutic effect of rituximab for Burkitt lymphoma, which is known as malignant B cell lymphoma, the apoptotic ability of co-administration with EP-10H in Burkitt lymphoma BJAB cells was investigated. For investigation of the effect of co-administration, 5×10^5 BJAB cells were cultured for 1 hour under the condition of 37° C. and 5% CO2 after treating with 100 μL of RPMI supplemented with 50% complement human serum (Sigma, USA), containing 50 μg/mL of 4-1H or EP-10H and 20 μg/mL of rituximab. Then, CDC was observed by identifying apoptotic cells with Attune N×T (ThermoFisher Scientific, USA), which is a FACS analysis equipment, using an FITC annexin V apoptosis detection kit with 7-AAD (BioLegend, USA) (FIG. 4). […] It was confirmed that this effect was more significant for EP-10H having higher affinity for CD55.
The apoptotic ability of the CD20×CD55 bispecific antibody was investigated by the method of Example 10-1. […]

Ramos-RR cells = experiment: CDC / apoptosis by FACS in rituximab-resistant Ramos-RR cells with complement human serum; assay type: cell-based; details: anti-CD55 antibody + rituximab, method of Example 10-1
K562-IR cells = experiment: Apoptosis by FACS in imatinib-resistant K562-IR cells; assay type: cell-based; details: 2 μM imatinib + 10 μg/mL anti-CD55 antibody, 24 hours
Description: Immediately thereafter, the cells were treated with 2 μM imatinib or with 2 μM imatinib and 10 μg/mL 4-1H or EP-10H diluted with 500 μL of RPMI, and then cultured under the condition of 37° C. and 5% CO2 for 24 hours. Then, apoptotic cells were analyzed with the FACS analysis equipment Attune N×T using 7-AAD and an FITC annexin V apoptosis detection kit (FIG. 6b).

PC9-GR cells = experiment: Apoptosis by FACS in gefitinib-resistant PC9-GR cells; assay type: cell-based; details: 5 μg/mL gefitinib + 5 μg/mL anti-CD55 antibody, 24 hours
Description: 24 hours later, after treating with 5 μg/mL gefitinib or 5 μg/mL gefitinib and 5 μg/mL 4-1H or EP-10H diluted with 500 μL of RPMI, the cells were cultured again for 24 hours under the condition of 37° C. and 5% CO2. Then, apoptotic cells were analyzed with the FACS analysis equipment Attune N×T using 7-AAD and an FITC annexin V apoptosis detection kit (FIG. 7b).

[4] = target: T1, recombinant human CD55 (R&D Systems …); experiment: phage ELISA, recombinant human CD55 coated, anti-M13-HRP; 4-1H phage clone as control
Description: 192 clones screened from the products of the third and fourth biopanning were incubated overnight at 37° C. on a 96-deep well plate after adding 100 μg/mL carbenicillin, 70 μg/mL kanamycin and VCSM13 helper phage to induce the proliferation of phages wherein the antibody was expressed. After centrifuging the culture, the supernatant containing the phage was incubated at 37° C. for 2 hours on an ELISA plate coated with recombinant human CD55 (R&D Systems 2009-CD/CF, USA). Then, the antibody binding to CD55 was identified by ELISA using HRP-conjugated anti-M13 antibody (Merck, USA) as a secondary antibody.

B1: EP-10H (antibody, V domains shown)
VH: EVQLVESGGGLVQPGGSLRLSCAASGFTFSDRGMAWVRQAPGKGLEWVSGISSSGRYTYYAPAVKGRATISRDNSKNTLYLQMNSLRAEDTAVYYCAKNAVAGGWHAAYIDAWGQGTTVTVSS
VL: SYELTQPPSVSVSPGQTASITCSGGGGSYGWYQQKPGQSPVTVIYWNDKRPSGIPERFSGSKSGNTATLTISGTQAMDEADYYCGGWDSSTYAIFGGGTKLTVL
notes: Tested as full-length IgG; Differs from G4-1H only at the H100A site (G to V); also called EP-10H monoclonal antibody; EP-10H antibody
B1: binds [1]; binds [2].

B2: EP-10H: anti-CD55 antibody different from G4-1H only at the H100A site (G to V), VL SEQ ID NO 4, VH SEQ ID NO 19 (antibody, V domains shown)
VH: EVQLVESGGGLVQPGGSLRLSCAASGFTFSDRGMAWVRQAPGKGLEWVSGISSSGRYTYYAPAVKGRATISRDNSKNTLYLQMNSLRAEDTAVYYCAKNAVAGGWHAAYIDAWGQGTTVTVSS
VL: SYELTQPPSVSVSPGQTASITCSGGGGSYGWYQQKPGQSPVTVIYWNDKRPSGIPERFSGSKSGNTATLTISGTQAMDEADYYCGGWDSSTYAIFGGGTKLTVL
modifications: EP-1E_VH; G4-1H_VL
For B2, the “affinity for CD55 (indirect ELISA, absorbance at 450 nm)” value (recombinant human CD55) was “comparable affinity”, the “effect of rituximab (CDC, apoptotic cells) on co-administration with anti-CD55 antibody” value [3] was “the effect was increased; also recorded: The increase was higher for a combination of rituximab and EP-10H than a combination of rituximab and 4-1H” and the “apoptosis by rituximab on co-administration with anti-CD55 antibody” value (Ramos-RR cells) was “increased apoptosis; also recorded: more significantly increased the apoptosis by rituximab as compared to the co-administration with 4-1H”. For the same molecule, the “apoptosis on co-administration with imatinib” value (K562-IR cells) was “apoptosis was induced; also recorded: higher apoptotic effect than the co-administration of 4-1H and imatinib” and the “apoptosis on co-administration with gefitinib” value (PC9-GR cells) was “apoptosis was induced; also recorded: higher apoptotic effect than the co-administration of 4-1H and gefitinib”.

B3: EP-10H scFv clone displayed on phage (scFv, V domains shown)
VH: EVQLVESGGGLVQPGGSLRLSCAASGFTFSDRGMAWVRQAPGKGLEWVSGISSSGRYTYYAPAVKGRATISRDNSKNTLYLQMNSLRAEDTAVYYCAKNAVAGGWHAAYIDAWGQGTTVTVSS
VL: SYELTQPPSVSVSPGQTASITCSGGGGSYGWYQQKPGQSPVTVIYWNDKRPSGIPERFSGSKSGNTATLTISGTQAMDEADYYCGGWDSSTYAIFGGGTKLTVL
notes: In the screening ELISA it stood as scFv on phage (pComb3x)
B3: binds [4].

B4: EP-1E scFv clone displayed on phage (scFv, V domains shown)
VH: EVQLVESGGGLVQPGGSLRLSCAASGFTFSDRGMAWVRQAPGKGLEWVSGISSSGRYTYYAPAVKGRATISRDNSKNTLYLQMNSLRAEDTAVYYCAKNAVAGGWHAAYIDAWGQGTTVTVSS
VL: SYELTQPPSVSVSPGQTASITCSGGGGSYGWFQQKPGQSPVTVIYWNNKRPSGIPERFSGSKSGNTATLTISGTQAMDEADYYCGGWDSSTYAIFGGGTKLTVL
notes: as for B3
B4: binds [4].
